Laboratory results as given in patent US20130108602A1, “METHODS AND USES OF NUR77 AND NUR77 AGONISTS TO MODULATE MACROPHAGES AND MONOCYTES, AND TREAT INFLAMMATION, INFLAMMATORY DISEASE AND CARDIOVASCULAR DISEASE” (LA JOLLA INSTITUTE FOR ALLERGY AND IMMUNOLOGY, priority 2010, published 2013).

What was measured:
[1] = system: Nur77 mRNA; assay: Nur77 (NR4A1) mRNA by real-time RT-PCR in human monocyte-derived macrophages; format: cell-based
[2] = system: Nur77 protein; assay: Nur77 protein staining in primary human monocyte-derived macrophages; format: cell-based; settings: at 24 hours, Gal-3BP 10 μg/ml

B1: Gal-3BP: recombinant human galectin-3 binding protein (R&D) (protein, UniProt Q08380 19-585, looked up)
Galectin-3-binding protein: VNDGDMRLADGGATNQGRVEIFYRGQWGTVCDNLWDLTDASVVCRALGFENATQALGRAAFGQGSGPIMLDEVQCTGTEASLADCKSLGWLKSNCRHERDAGVVCTNETRSTHTLDLSRELSEALGQIFDSQRGCDLSISVNVQGEDALGFCGHTVILTANLEAQALWKEPGSNVTMSVDAECVPMVRDLLRYFYSRRIDITLSSVKCFHKLASAYGARQLQGYCASLFAILLPQDPSFQMPLDLYAYAVATGDALLEKLCLQFLAWNFEALTQAEAWPSVPTDLLQLLLPRSDLAVPSELALLKAVDTWSWGERASHEEVEGLVEKIRFPMMLPEELFELQFNLSLYWSHEALFQKKTLQALEFHTVPFQLLARYKGLNLTEDTYKPRIYTSPTWSAFVTDSSWSARKSQLVYQSRRGPLVKYSSDYFQAPSDYRYYPYQSFQTPQHPSFLFQDKRVSWSLVYLPTIQSCWNYGFSCSSDELPVLGLTKSGGSDRTIAYENKALMLCEGLFVADVTDFEGWKAAIPSALDTNSSKSTSSFPCPAGHFNGFRTVIRPFYLTNSSGVD
For B1, the “time of peak Nur77 mRNA expression after addition” value ([1]; M-CSF-derived human macrophages (M0), Gal-3BP 10 μg/ml) was 48 h, the “NUR77 mRNA increase” value ([1]; M-CSF-derived human macrophages (M0), Gal-3BP 10 μg/ml, 0-72 hours, two independent studies) was 3-4 fold and the NR4A1 expression induction ([1]; human primary macrophages, 6 hours after Gal-3BP, normalized to t=0, n=3) was “more than 6 fold”. The “Nur77 protein compared to control” value [2] was “massively increased”.
